Reference: publication PMC3833899 (Brain research, 2013)

Target: Recombinant chick netrin-1 (chick, UniProt Q90922 26-606)
Test: retention on a 30 kD cut-off size exclusion

binding result: binds
Binder: PRYQHTGAVYLLSASPQ [Integrin α3 peptide]
